Ends that are not written are not given here. Pep Spots Membrane = cellulose membrane (Jerini Biotools) to which the peptides are covalently attached at their C-termini as individual spots
How the values were obtained:
[1] = molecular target: recombinant soluble human 17-1A-antigen (human) (UniProt P16422); assay: SPR (BIACORE 2000), s17-1A immobilized on CM5 chip, 1. set
[2] = molecular target: recombinant soluble human 17-1A-antigen (human) (UniProt P16422); assay: SPR (BIACORE 2000), s17-1A immobilized on CM5 chip, 2. set (internal reference)
17-1A peptide 60 = molecular target: T1, 17-1A peptide 60 (human); assay: peptide spot membrane, electrotransfer, anti-human secondary antibody, chemoluminescence
T1 construct: also called peptide spot 60
T1 peptide: CSERVRTYWIIIE-{Pep Spots Membrane}
From the text: (§1) Due to a higher degree of crossreactivity of the secondary HRP-conjugated anti-human immunoglobulin antibody with several peptide spots, bound human antibodies H79 and HD70 were transfered from the Pep Spots Membrane to a blotting membrane, respectively, by means of electrotransfer and subsequently detected by said anti human secondary antibody and chemoluminescence. Specific binding of human antibody H79 could be detected mainly at peptide spots 8, 11, 13, 14, 59-60, 77 and 79; however, no binding was detectable in case of human antibody HD70.
(§2) The PepSpots Membrane with the synthesized peptides was shaken for ten minutes in methanol and then washed three times for ten minutes in TBS-buffer pH8. The membrane was then blocked in casein based blocking solution, containing 0.05 g/ml sucrose for one hour and then once shaken in TBS pH8/0.05%Tween 20 (TBS-T).
(§3) Each of the anti-17-1A antibodies was incubated at room temperature together with the membrane for three hours in blocking solution (1 μg antibody/ml). After three washes in TBS-T for ten minutes each, the horse radish peroxidase (HRP)-conjugated secondary antibody (anti mouse/anti human; 1 μg/ml blocking solution) was incubated for two hours at room temperature together with the membrane. Then the membrane was washed for three times in TBS-T for ten minutes each. Detection of bound antibodies was performed directly on the Pep Spots Membrane in case of M79 according to the protocol of the chemoluminescence kit manufacturer (Boehringer). The blot was regenerated after three washes with TBS-T (10 min.) in a solution containing 50 mM Tris-HCl pH 6.7, 100 mM 2-Mercaptoethanol and 2% (w/v) SDS for 30 min at 50° C. and subsequently reused for epitope mapping of the next antibody. Due to the higher degree of unspecific binding of the anti-human immunoglobulin secondary antibody to the polypeptide-spots on the membrane, a fractionated electrotransfer to a second blotting-membrane followed by detection with the anti-human secondary antibody was carried out in case of HD70 and H79 according to Rüdiger, EMBO 16 (1997) 1501-1507. Incubation with the secondary antibody and antibody detection on the blots was performed as described above.

17-1A peptide 8 = molecular target: T2, 17-1A peptide 8 (human); assay: as above
T2 construct: also called peptide spot 8
T2 peptide: NYKLAVNCFVNNN-{Pep Spots Membrane}
From the text: as §1, §2, §3

17-1A peptide 59 = molecular target: T3, 17-1A peptide 59 (human); assay: as above
T3 construct: also called peptide spot 59
T3 peptide: ITCSERVRTYWII-{Pep Spots Membrane}
From the text: as §1, §2, §3

17-1A peptide 14 = molecular target: T4, 17-1A peptide 14 (human, cysteine pairing not given here); assay: as above
T4 construct: also called peptide spot 14
T4 peptide: NRQCQCTSVGAQN-{Pep Spots Membrane}
From the text: as §1, §2, §3

17-1A peptide 11 = molecular target: T5, 17-1A peptide 11 (human, cysteine pairing not given here); assay: as above
T5 construct: also called peptide spot 11
T5 peptide: NCFVNNNRQCQCT-{Pep Spots Membrane}
From the text: as §1, §2, §3

17-1A peptide 13 = molecular target: T6, 17-1A peptide 13 (human, cysteine pairing not given here); assay: as above
T6 construct: also called peptide spot 13
T6 peptide: NNNRQCQCTSVGA-{Pep Spots Membrane}
From the text: as §1, §2, §3

17-1A peptide 79 = molecular target: T7, 17-1A peptide 79 (human); assay: as above
T7 construct: also called peptide spot 79
T7 peptide: RYQLDPKFITSIL-{Pep Spots Membrane}
From the text: as §1, §2, §3

[3] = molecular target: T8, recombinant soluble human 17-1A-antigen (human, UniProt P16422 24-265); assay: SPR (BIACORE 2000), s17-1A immobilized on CM5 chip, 1. set
T8 construct: extracellular domain; also called s17-1A; soluble 17-1A-antigen
T8 sequence (looked up): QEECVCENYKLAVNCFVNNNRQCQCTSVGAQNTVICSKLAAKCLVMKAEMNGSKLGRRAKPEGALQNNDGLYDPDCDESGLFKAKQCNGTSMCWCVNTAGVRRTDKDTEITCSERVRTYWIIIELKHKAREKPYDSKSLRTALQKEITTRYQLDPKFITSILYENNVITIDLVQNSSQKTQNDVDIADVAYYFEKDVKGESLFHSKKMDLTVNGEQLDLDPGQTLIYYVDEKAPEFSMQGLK
Method: Surface plasmon resonance measurement was performed using the BIACORE 2000 device (Biacore AB, Freiburg, Freiburg, Germany). Immobilization of recombinant soluble 17-1A-antigen in each flow cell and analysis of the interaction was carried out with an automatic method in BIACORE 2000. The antigen was covalently coupled to sensor chip CM5 via primary amine groups. After activation of the carboxylated dextran matrix of CM5 sensor chip with a single injection of 80 μl of 0.1 M N-hydroxisuccinimide/0.4 M N-ethyl-N′-(3-dimethylaminopropyl)-carbodiimide (NHS/EDC9) through all four flow cells, flow cells 1,2,3 and 4 were successively included ito the flow path during injection of s17-1A-antigen (60 μg/ml in 10 mM sodium acetate, pH 4.7). Different contact times of 17-1A to the activated surface lead to approximately 2500 response units (RU9 in flow cell 1, […] in flow cell 2, 780 RU in flow cell 3 and 290 RU in flow cell 4). Excess activated esters were blocked by injection of 85 μl 1 M ethanolamine pH 5 over all four flow cells. Binding experiments were performed at 25° C. in buffer of pH 7.4 containing 10 mM Hepes, 150 mM NaCl, 3 mM EDTA and 0.005% surfactant P20. The binding kinetics of antibodies to immobilized recombinant 17-1A were determined by injecting antibody concentrations ranging from 0.5 to 2 μM. The sensor chip was regenerated between each run with 100 mM Glycin, 500 mM NaCl, 0.005% Tween pH3. The association and dissociation rate constants, Kon and Koff were analysed using BIA-evaluation software from Biacore AB as described (Karlsson, (1991) J Immunol Meth 145: 229-240). Two sets of affinity determinations were carried out (1.set: M79, H79, D7.2, Panorex; 2. set: Panorex, HD70); the murine Panorex was also included in set 2 as internal reference.

[4] = molecular target: T8, recombinant soluble human 17-1A-antigen; assay: ELISA of periplasma Fab preparations on immobilized s17-1A
Method: As previously mentioned in example I, E. coli XL1 Blue transformed with pComb3H containing one light and the Fd-segment of one heavy chain produce soluble Fab in sufficient amounts after excision of the gene III fragment and induction with IPTG. The heavy chain Fd-segment and the light chain are exported into the periplasma where they assemble and form functional Fab-fragments. For better periplasma preparations the cells were grown in SB-medium supplemented with 20 mM MgCl₂ and are redissolved in PBS after harvesting. By four rounds of freezing at −70° C. and thawing at 37° C., the outer membrane of the bacteria was destroyed by temperature shock and the soluble periplasmatic proteins including the Fab fragments were released into the supernatant. After elimination of intact cells and cell-debris by centrifugation, the supernatants containing the Fab-antibody-fragments were collected and used for further examination. […]
Detection of k8-D4.5 and k5.1-D4.5-Fab-fragments bound to immobilized s17-1A anigen was carried out using a polyclonal biotinylated anti-human-kappa light chain antibody (1 μg/ml PBS) detected with horse raddish conjugated Avidine (1 μg/ml PBS). The signal was developed by adding a substrate solution, containing 2,2′Azino-bis(3-Ethylbenz-Thiazoline-6-Sulfonic Acid) and Na-perborate and detected at a wavelength of 405 nm.

[5] = molecular target: T9, human 17-1A-antigen on cells (Kato gastric cancer cells, 17-1A-transfected CHO cells, colon tissue) (human, UniProt P16422 24-314); assay: flow cytometry on Kato cells and 17-1A-transfected CHO cells, periplasma preparation
T9 construct: whole, on cells; also called transmembrane 17-1A; CHO/17-1A
T9 sequence (looked up): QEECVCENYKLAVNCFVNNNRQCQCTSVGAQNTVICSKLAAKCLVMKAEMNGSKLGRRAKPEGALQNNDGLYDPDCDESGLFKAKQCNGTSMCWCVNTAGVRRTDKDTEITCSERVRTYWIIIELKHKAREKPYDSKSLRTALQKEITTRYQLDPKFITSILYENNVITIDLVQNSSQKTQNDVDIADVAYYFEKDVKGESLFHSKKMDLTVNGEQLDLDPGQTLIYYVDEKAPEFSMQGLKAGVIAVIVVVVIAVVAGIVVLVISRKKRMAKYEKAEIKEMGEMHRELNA
From the text: The test for binding of the two 17-1A positive human Fab-fragments (k8-D4.5-Fab and k5.1-D4.5-Fab) on Kato-cells (17-1A expressing gastric cancer cell-line), 17-1A transfected CHO-cells (CHO/17-1A) and non-transfected CHO-cells was again carried out with the periplasma preparations. CHO transfected cell-lines were generated by subcloning of a DNA-fragment encoding the complete amino acid sequence of the 17-1A-antigen also known as GA733-2 (Szala, Proc. Natl. Acad. Sci. U.S.A. 87 (1990), 3542-3546), into the eucaryotic expression vector pEF-DHFR (Mack, , Proc. Natl. Acad. Sci. U.S.A. 92 (1995) 7021-7025) according to standard procedures (Sambrook, Molecular Cloning; A Laboratory Manual, Second Edition, Cold Spring Harbour Laboratory Press, Cold Spring Harbour, N.Y. (1989)). The resulting plasmid was linearized with NdeI and transfected into DHFR-deficient CHO-cells for stable expression. The expression of transmembrane 17-1A was increased by stepwise gene amplification induced by subsequent addition of increasing concentrations of the DHFR-inhibitor Methotrexat (MTX) to a final concentration of 500 nM, with the concentration steps in between being 20 nM and 100 nM (Kaufmann, Methods Enzymol. 185 (1990), 537-566). […] Labeled cells were then analyzed by flow cytometry.

B1: Panorex (antibody, INN chains, looked up, V domains shown)
VH: QVQLQQSGAELVRPGTSVKVSCKASGYAFTNYLIEWVKQRPGQGLEWIGVINPGSGGTNYNEKFKGKATLTADKSSSTAYMQLSSLTSDDSAVYFCARDGPWFAYWGQGTLVTVSA
VL: NIVMTQSPKSMSMSVGERVTLTCKASENVVTYVSWYQQKPEQSPKLLIYGASNRYTGVPDRFTGSGSATDFTLTISSVQAEDLADYHCGQGYSYPYTFGGGTKLEIK
Kd [1]: 200 nM | koff [1]: 0.022 s⁻¹ | kon [1]: 110000 M⁻¹ s⁻¹ | Kd [2]: 270 nM | koff [2]: 0.027 s⁻¹ | kon [2]: 100000 M⁻¹ s⁻¹

B2: H79-huIgG1 (VD4.5huIgG1-k8) (antibody, V domains shown)
VH: EVQLLESGGGVVQPGRSLRLSCAASGFTFSSYGMHWVRQAPGKGLEWVAVISYDGSNKYYADSVKGRFTISRDNSKNTLYLQMNSLRAEDTAVYYCAKDMGWGSGWRPYYYYGMDVWGQGTTVTVSS
VL: ELQMTQSPSSLSASVGDRVTITCRTSQSISSYLNWYQQKPGQPPKLLIYWASTRESGVPDRFSGSGSGTDFTLTISSLQPEDSATYYCQQSYDIPYTFGQGTKLEIK
notes: Complete antibody produced in CHO cells; also called H79 human IgG1; human H79
binding result (17-1A peptide 60): binds | binding result (17-1A peptide 8): binds | binding result (17-1A peptide 59): binds | binding result (17-1A peptide 14): binds | binding result (17-1A peptide 11): binds | binding result (17-1A peptide 13): binds | binding result (17-1A peptide 79): binds | Kd [3]: 340 nM | koff [3]: 0.0072 s⁻¹ | kon [3]: 21000 M⁻¹ s⁻¹

B3: k5.1-D4.5-Fab (Fab, V domains shown)
VH: EVQLLESGGGVVQPGRSLRLSCAASGFTFSSYGMHWVRQAPGKGLEWVAVISYDGSNKYYADSVKGRFTISRDNSKNTLYLQMNSLRAEDTAVYYCAKDMGWGSGWRPYYYYGMDVWGQGTTVTVSS
VL: ELQMTQSPSSLSASVGDRVTITCRASQSISSYLNWYQQKPGQPPKLLIYWASTRESGVPDRFSGSESGTNYTLTISSLQPEDFATYFCQQSDSLPITFGQGTRLDIQ
notes: Soluble Fab tested as an E. coli periplasma preparation
binding result [4]: binds | binding result [5]: binds

Reference: US20030148463A1 (published 2003)
